Results: patent US20050054569A1, “Mutants and assay system to identify USP/RXR ligands” (published 2005)
Numbering of substitutions follows the chain as printed. Numbers in names are those of the source.

Key:
[1] = molecular target: the molecule itself; experiment: dimerisation, gel mobility shift on DR12 probe (not shown)
[2] = molecular target: the molecule itself; experiment: homodimerisation, gel mobility shift on 4DR12 probe; bands assigned with Superdex 200 fractions
Source text: Arrows show time of addition of methyl epoxyfarnesoate or EtOH carrier.
Nuclear extracts were isolated from Sf9 cells as previously described Jones et al. (2001) Insect Biochem. Mol. Biol. 32, 33-49; Jones et al (1998) Biochem. J. 335, 79-84; 79-84; Jones et al. (2000) Biochem. J. 346, 233-240. For the DR12 probe, the double stranded DR12 oligonucleotide (sequence as shown above) was 5′ end-labelled with ³²P by T4 polynucleotide kinase (New England Biolabs Inc.), and then purified from a 20% native polyacrylamide gel. The same double stranded DR12 oligonucleotide was used in 100-fold excess as a self competitor. For the 4DR12Core probe, the 4DR12Core sequence was liberated from the vector as a 148-bp ClaI/HindIII fragment, and was 5′ end-labelled with ³²P and purified. The same, unlabelled fragment was used at 100-fold excess as a self competitor. As a negative control for specificity in gel shifts, the 36 bp BglII/KpnI polylinker region fragment of the pGL3 vector was liberated and recovered from low melting point agarose gels and used as a 100 nonself competitor (sequence: […], SEQ ID NO: 17). […]

[3] = molecular target: T1, USP (ultraspiracle) wild-type (Drosophila melanogaster, UniProt P20153 SEQ:1-508); experiment: competition; 100x nonself competitor, specificity control; conditions: tags: His-tag, pET32EK (Novagen); chain copies: monomer and homodimer (stated)
T1 sequence: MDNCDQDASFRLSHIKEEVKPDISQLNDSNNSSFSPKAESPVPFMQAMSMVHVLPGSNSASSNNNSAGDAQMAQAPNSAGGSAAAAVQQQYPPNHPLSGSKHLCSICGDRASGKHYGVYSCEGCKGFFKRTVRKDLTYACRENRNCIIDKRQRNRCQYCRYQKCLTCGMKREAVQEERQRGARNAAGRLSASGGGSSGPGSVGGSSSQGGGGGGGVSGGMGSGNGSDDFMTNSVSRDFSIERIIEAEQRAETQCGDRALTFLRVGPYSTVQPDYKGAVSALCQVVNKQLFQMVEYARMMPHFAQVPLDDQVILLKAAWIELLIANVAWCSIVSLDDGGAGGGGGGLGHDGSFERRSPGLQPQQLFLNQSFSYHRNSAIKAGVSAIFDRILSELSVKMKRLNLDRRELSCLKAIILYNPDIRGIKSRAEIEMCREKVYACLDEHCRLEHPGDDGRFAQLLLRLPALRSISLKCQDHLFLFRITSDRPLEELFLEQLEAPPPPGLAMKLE
Procedure: (§1) Control competitions with self and nonself unlabelled excess probes confirmed the specificity of binding. […] (B) The homodimer-enriched fraction of each receptor preparation was then analyzed for binding to […] methyl epoxyfarnesoate, using an intrinsic fluorescence assay method that tracks ligand binding (by suppression in receptor fluorescence) Jones et al., (2000) Insect Biochem. Mol. Biol. 30, 671-679; Jones et al. (2001), Insect Biochem. Mol. Biol. 32, 33-49. […] Arrows show time of addition of methyl epoxyfarnesoate or EtOH carrier.
(§2) Nuclear extracts were isolated from Sf9 cells as previously described Jones et al. (2001) Insect Biochem. Mol. Biol. 32, 33-49; Jones et al (1998) Biochem. J. 335, 79-84; 79-84; Jones et al. (2000) Biochem. J. 346, 233-240. For the DR12 probe, the double stranded DR12 oligonucleotide (sequence as shown above) was 5′ end-labelled with ³²P by T4 polynucleotide kinase (New England Biolabs Inc.), and then purified from a 20% native polyacrylamide gel. The same double stranded DR12 oligonucleotide was used in 100-fold excess as a self competitor. For the 4DR12Core probe, the 4DR12Core sequence was liberated from the vector as a 148-bp ClaI/HindIII fragment, and was 5′ end-labelled with ³²P and purified. The same, unlabelled fragment was used at 100-fold excess as a self competitor. […]

[4] = molecular target: T2, USP C472A/H475L (Drosophila melanogaster, UniProt P20153 SEQ:1-508, C472A/H475L); experiment: as above; conditions: tags: His-tag, pET32EK (Novagen); chain copies: monomer and homodimer (stated)
T2 sequence: T1 sequence with C472A, H475L
Procedure: as §1, §2

B1: His-tagged wild-type Drosophila melanogaster USP (bacterially overexpressed) (receptor)
chain: T1 sequence
notes: Full-length dUSP cloned into pET32EK, purified on nickel resin and Superdex 200; also called wild-type dUSP; His-dUSP fusion protein; not shown: His tag / fusion part from the vector pET32EK
B1: binds [1].

B2: P498W/P499W mutant USP (receptor, not shown: small tags and cut ends)
chain: T1 sequence with P498W, P499W
notes: Two prolines at the end of alpha-helix 12 replaced by tryptophan
B2: binds [1].

B3: His-tagged mutant dUSP Cys472Ala/His475Leu (bacterially overexpressed) (receptor)
chain: T1 sequence with C472A, H475L
notes: also called C472A/H475L; double mutant dUSP; not shown: His tag / fusion part from the vector pET32EK
B3: binds [2].

B4: pGL3 polylinker (nonself) (dsDNA)
DNA 1: GGTACCGAGCTCTTACGCGTGCTAGCCCGGGCTCGA
DNA 2: TCGAGCCCGGGCTAGCACGCGTAAGAGCTCGGTACC
B4: no binding [3]; no binding [4].
